Reference: the DeepSol protein solubility set

Assay: soluble on expression in E. coli; label from the status in PepcDB or PDB records

Soluble on expression in E. coli, not soluble:
MGSDKIHHHHHHMITIVKKVRNEIIRKIYRIPLFSNTADIAYQTAITQHTNHLPYLADSDLSLVKNLQEEGIVITSLTELSIPSTMEMLQAAKLLKTKIPINIAGNQNEFTVHASSEQIREHSSIFFWGLQERLLNIVENYLGLSVAYHGAYFRRDINNQVRKKSRLWHLDKEDRKMLKIIIYLNDVNEDGGPFEYIPKSLTSHISKSLKYDDTYIKDETMDQVVSSSYWQPCTGKSGAVIFVDTANIFHRGKLPLSSDRLSIFFDYTTRQPKHPFYCKSSLSNKDLLAVSAELSENQKQCIFWQHNYN, MGSDKIHHHHHHMITNTHLLISYIVYKNLYNNFNFKLDMAAFALGNIKPDFINKEIKCSHTLNESLDSLIEYSNKLVKYNNSIRKFSLALGIVCHYICDYFCIYHRDGNEKKGILEHLIYEVKLDSNFTMMFLKGKLNYFGCRDYGGSIKKIIFNIEKEYKLEEKDFKRDIKYALFAAIESSKFIVYSSKLYGN, MGSDKIHHHHHHMIVETMTMVEFEEGLKRTRTVFVPFGSVEEHGCHLPLSTDTIQAYEVGKKAALQISLFVAPPIHYGSCRSTSCHPGTISITTATLKCLMKDIVRSLYAQGMRNFIILTGHAGGSHRMALQDAGEELLPEIPDIRIAVVTEYELASREGKGIIETEGDAHAGEIETSRILHTHPHLVQGRGEREFPSFPTGILVRNKRKYWPNGVWGDPAKATAEKGKRLEELVVKKIVELAAALEQFQE, MGSDKIHHHHHHMIYMIIHKFIIHVLDKNSDVPILNDFEGKVNQEVDGFFQKAIKRIAKDEDLRKGVFKDYNDNLIKNCCEQIIYDESTFLKNSKEIASYLFDVMKINAALESCDLAICLYTIKDEKSVAILKLDYKKLYTHSIEFVDDKFNIQMVSNEIGIPETLRQKQGALISLSGINDEFHLRLLDKDAEKEGSESKFVTEFLNAKKIDDDKYKTKVFKNTAENWITNALSNDIKQAEDVRSILNYTLKEKHEVDINDFVDNSIKDDELKDSFKEHMEEKGLDESFSIDKKWVEKKLKKRSIKTDNGFDIKGNLTDFEDPMKYTVKQNQDGTIDIIIKNVTFYEEK, MGSDKIHHHHHHMKAFDRDASEPRIGLAYGPGMAEFAARNAHLVDYIEVPFEQLRFSPAVAELQQTIPFVLHCASLSVAGFVPPDDSTVDAIERTAVQTGTPWIGEHLAYISADPVGEALGGTGEPTSLSYTLCPQLSDETVRRVVDNLAALRPHFPVPLIVENSPQYFPIPGSTMGMTDFIRAITDRCDVGLLLDLSHFLITAHNTGAEVHRELARLPLERVVEVHLSGMSVQSGTAWDDHSLPASPILFELLERLLDVARPRALTFEYNWSPYFPLSVLTTHIERARQLMGLA, MGSDKIHHHHHHMKASIEQLEPYVPEKPLATLQAELGLTELVRLSANENPYGTSPKVATAVKNWDFTQSNRYPDADAQELRQAVAQQQGIDPNSIVFSVGLDEMIVMLSRTFLATNDQVLVSAPTFSEYGLHAEIEGGQLISVPTLPNDHVNFEGLMKAITPHVKMVWLCNPNNPTGTVESLAAIEAFVQQVPPETMVLIDEAYIDFTPGAAQVTAMQLPAKYPNVVVMRTFSKAYGLANFRIGYAVFNTKYAATMQTIRLPYNVNSLAQVAALAAIDDPNFVKQTVQKNATERAKWMAFFDDQGVTYDQSGANFIFFKYPSATQLADYLVHHGYLIRTGLRPGWLRLTVGTANDNQQLQQLIREFKA, MGSDKIHHHHHHMKDVMFYFEIHQPFRLRPTNLYDVKSEQNVFWDEKNEEIFRRVAERSYIPATRNLMEYGIKSSFSITGTAVEQALMYNTKVIDAIDDYVKSGLCEMLSETYYHSLASIWNYDEFKRQVDMHRDLMKRIFNVVPKVFRNTELIYDDRIAEMVKRMGFTSIITEGTDSIVKDHSPNYRYASPSGLNLYLRNYVMSDNISFRFSNTKWKDYPLTADKYAKWINESEGDMVNLFMDYETFGEHQTQETGIFDFMKYLPVYFRDYGIETITISEAEKRHRVKDVLSIPETISWADTRRDLSAWLENEMQIDTFDRIKKCREKAGRLWGYLQTSDIIYYMSIGLEQDFTVHEYFNPYKSPYLAFIYTNYALDKICGSSYGKNEI, MGSDKIHHHHHHMKEKERLIIEMAMKLFATKGVNATSVQEIVTACGISKGAFYLYFKSKEELLLATLRYYYDKIQNKMMDIEKESLLPREKFAKQLHCQFNDIQKHKEFIIMHARENAIPFNKEVEEFMMRMKLESHAFYRNSLLSIYGDKVMPYLLDLVIMVEGICRGYLELIILQAPEIDLSYVSAFILKRVDHLVDGLVKSSEEPVLHEERLGEFLCKSELIKEQVKEHFLKEIIVFKRTLADQLEDEELLVTLDVLEAEMRMQNPRIPVIQGMLFNLEAYPTLKEFRLRLMGYYNIKR, MGSDKIHHHHHHMKESLRILHINDLHSHFEAYPKIKRFFAEHSKTQREVLRFDIGDNVDKSHPLTDVSAGRVNVDLMNDLGIDFATIGNNEGIGLAKAEINQLYHKADFQVILGNLRDKKGRPTWAQPYVIYETKAGTKLALLAYTFPYYWTYVPNGWQVLDAISSLKKDLENPEVAAADFRILLSHLGIRLDEKIARQVPEIDLIIGAHTHHVFEEGEVVNGTYLAAAGRYGDHVGQIDLDFEDHSLTNIAIEAVPTSDLDSEKEDAAFVAHLFEEGEKLLAENLICKLSRQPSLKECADLVMEAMKKSAAADLAIINTGLVVEPFSQNLTKADLHKSLPHQMRLVKFQVTQTELLEICHDIFSQADLLANQQIRGMGFRGKQFGKVVTSGFTYKNGKIVYNNKAIGRKDKMSLVLVDQYYFAPYFNSLTSRKGQLLFPDLLRQTVEKYLRGDL, MGSDKIHHHHHHMKFPGQRKSKHYFPVKNRDPLLAQLTLQPQHISTHISGIDQTLVDIEAKVGDDLLSRYALPKGNSTLIDDEKAHQLYTELKSSELISDEFAGGTIGNTVHNYSILADDRSVLFGVMSNHIEVGSYAYRYLCNTSSKVDLNFLQPVDGPIGRCFTLISECGERTFAISKGSMDKLTPEYIDQEIVQTSSALVLTAYLMRASGGDKITDAALKAIEYAKAADVPVVLTLGTRFLIEEDPQWWIDFIKENVTILAMNEDEGEALTGFKDPLSASNAALEWCDMVLTTAGPLGLYTAGYTEDSEKRETSHTLLPGAIPEFNRYEFSRPKLKRDCQTPIKVFAHISPYMGGPEIIRNTNGAGDGALAALLHDLASNTYHKANVPGSSKHKRDGLCYSSFSQICKYANRVAYEVLAQHSPRLSRGLPEREDSLEEAYWER, MGSDKIHHHHHHMKGIDVSSYQGTIAWGKVKWAGVQFAILKIIRKDLNPDKTFEQNWQGCTEAGMPIQGVYNYSYATTTEKAKTDAKRVIEVLAGRKTFVWLDVEDRCQQGLGQTLIDIINTYQSEIKTAGLEFGVYTGLSFYNTYILPYANQINCPFWIARYPSTKGMTIGDDPNDAKKPAIAHSLYGWQYTSAFTCSGLNNSTDANLLYVELGTKDTTAASQPVSAPVKPNNESWKGDIDYYLESEEVRKWQHAMNVGFDLKGADALKEDGKFGADSQAFAKSHNLWNGQKHYCPTAIKWLRRTLHDVYSFTKLDTDYKEWSDYLSKCVMVFQKNRGLTQDARVGLLTTYRLLKG, MGSDKIHHHHHHMKGQLFVICGPSGAGKTSIIKEVLKRLDNVVFSVSCTTRPKRPHEEDGKDYFFITEEEFLKRVERGEFLEWARVHGHLYGTLRSFVESHINEGKDVVLDIDVQGALSVKKKYSNTVFIYVAPPSYADLRERILKRGTEKEADVLVRLENAKWELMFMDEFDYIVVNENLEDAVEMVVSIVRSERAKVTRNQDKIERFKMEVKGWKKL, MGSDKIHHHHHHMKHAFLIIAHNEYPVLEVLLSMLDDERNDIYLHIDKRATELFQQIKKVKMQKAGFYLIENPIKVYWGDISQVQVEYLLFETALSHGPYAYYHLLSGTDLPIKSQDYIHAFFQQNAGKEFVGFWQDAAHQRDLERKVFRYYFFTKRLKDKEHLLHGITALIRNLILAVQKISHYRRKQTFEFKKGGNWISITENAVKYLLQYKEIVLNRMKYTLCADEIFIQTILWNSPFRERMHCTNNANTGSMREIDWEHGSPYIWQDHDYQTLINSNKIFARKFNSNQMGVVYKIQKLYLKQVPK, MGSDKIHHHHHHMKHTLLIKDWLYSFLSLWFPRCCVVCGGSLAKGEECICTMCNINLPRTDYHLRKDNPVEKLFWGKFPLERATSFFFYRKGSDFRQVLHQLKYGGQKEIGAIMGRYMASELQASDFFHGVDVIIPIPLHKKKQQIRGYNQSEWISRGIMAVTGIPVDTEAIIRRKNTETQTQKSALERWENVDGIFELHRSEYLAGKHILIVDDVLTTGATTVACASRLAEIEGVRISVLTLAMAE
